From patent US20260232732A1 (FUNDACI INSTITUT DE RECERCA CONTRA LA LEUC MIA JOSEP …, published 2026)
Where no end group is shown, it is not given here. The star is where a group is joined. Biotin = O=C1N[C@H]2[C@H](CS[C@H]2CCCCC(=O)*)N1

T1: naked peptide 1a MTPTDFTSPIPNMADDYGSESTSS (human)
T1 construct: also called region 1-24
T1 peptide: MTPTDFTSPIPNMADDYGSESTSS

T2: naked peptide 1b MEDYVNFNFTDFYCEKNNVRQFAS (human)
T2 construct: also called region amino acids 25 to 48
T2 peptide: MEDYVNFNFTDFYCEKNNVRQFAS

T3: naked peptide MTPTDFTSPI (human)
T3 peptide: MTPTDFTSPI

T4: naked peptide TDFTSPIPNM (human)
T4 peptide: TDFTSPIPNM

T5: naked peptide TSPIPNMADD (human)
T5 peptide: TSPIPNMADD

T6: naked peptide IPNMADDYGS (human)
T6 peptide: IPNMADDYGS

T7: naked peptide MADDYGSEST (human)
T7 peptide: MADDYGSEST

T8: naked peptide DYGSESTSSM (human)
T8 peptide: DYGSESTSSM

T9: naked peptide SESTSSMEDY (human)
T9 peptide: SESTSSMEDY

T10: naked peptide TSSMEDYVNF (human)
T10 peptide: TSSMEDYVNF

T11: naked peptide SSMEDYVNFN (human)
T11 peptide: SSMEDYVNFN

T12: naked peptide SMEDYVNFNF (human)
T12 peptide: SMEDYVNFNF

T13: naked peptide MEDYVNFNFT (human)
T13 peptide: MEDYVNFNFT

T14: naked peptide YVNFNFTDFY (human)
T14 peptide: YVNFNFTDFY

T15: naked peptide FNFTDFYCEK (human)
T15 peptide: FNFTDFYCEK

T16: naked peptide TDFYCEKNNV (human)
T16 peptide: TDFYCEKNNV

T17: naked peptide YCEKNNVRQF (human)
T17 peptide: YCEKNNVRQF

T18: naked peptide KNNVRQFAS (human)
T18 peptide: KNNVRQFAS

T19: biotin-peptide TDFTSPIPNM (human)
T19 peptide: Biotin-TDFTSPIPNM

T20: biotin-peptide TSPIPNMADD (human)
T20 peptide: Biotin-TSPIPNMADD

T21: biotin-peptide IPNMADDYGS (human)
T21 peptide: Biotin-IPNMADDYGS

T22: biotin-peptide TSSMEDYVNF (human)
T22 peptide: Biotin-TSSMEDYVNF

T23: biotin-peptide SSMEDYVNFN (human)
T23 peptide: Biotin-SSMEDYVNFN

T24: biotin-peptide YCEKNNVRQF (human)
T24 peptide: Biotin-YCEKNNVRQF

T25: Pep1-48, N-terminal domain 1 of CCR9, amino acids 1 to 48 (human)
T25 construct: Chemically synthesized (Genscript), purity >75%; also called CCR9 N-terminal 1-48 peptide
T25 peptide: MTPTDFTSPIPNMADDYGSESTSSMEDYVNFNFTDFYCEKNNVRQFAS

B1: Comparative antibody 1 (Comp-1) scFv, SEQ ID NO: 10 from WO2023/037125 A1, His-tagged (scFv)
scFv: QVQLKESGPGLVQPSQTLSLTCTVSGFSVASYDMHWVRLPPGKGLEWMGIIWANGNTHYNSGLKSRLSISRDTSKSQVFLKMNSLQTEDTAIYFCTRGGFAYWGQGTLVTVSSGGGGSGGGGSGGGGSGGGGSDVVMTQTPVSLSVSLGGQVSISCRSSQSLVHNNGNTYLSWYLQKPGQSPQLLIYKVSNRFSGVSDRFSGSGSGTDFTLKISRVEPDDLGVYYCGQGTQYPTFGGGTKLELKHHHHHH
B2: Comparative antibody 2 (Comp-2) scFv, 243LO326 (VH SEQ ID NO: 51 and VL SEQ ID NO: 52 of WO 2022/195028 A2), His-tagged (scFv)
scFv: QVQLVQSGAEVKKPGASVKVSCKASGYTFTSYWMHWVRQAPGQGLEWIGVIYPGNSDTRYNQKFKGRVTITRDTSASTAYMELSSLRSEDTAVYYCTRDYYSNYVYYYAMDYWGQGTTVTVSSGGGGSGGGGSGGGGSGGGGSDIVMTQTPLSLPVTPGEPASISCRSSQSLVHPNRNTYLHWYLQKPGQSPQLLIYKVSNRFSGVPDRFSGSGSGTDFTLKISRVEAEDVGVYYCSQSTHVPWTFGQGTKLEIKHHHHHH

Experiments:
[1] = biological target: T1, naked peptide 1a …; experiment: ELISA naked 24-mer; repI
[2] = biological target: T2, naked peptide 1b …; experiment: ELISA naked 24-mer; repI
naked peptide MTPTDFTSPI = biological target: T3, naked peptide MTPTDFTSPI; experiment: ELISA naked peptide; scFv 1 ug/mL; repII
Description: (§1) The peptides were synthesized naked or with a N-terminal Biotin modification with a purity of >98%. All four scFvs were verified by ELISA that can be detected with anti-His antibodies. ELISA was performed for scFv-peptide binding validation. Briefly, naked peptides were coated (50 μg/mL) in 0.58M carbonate-bicarbonate buffer pH9.5, 100 μL/well, 4° C. O/N. Then after blocking (3% BSA-PBS, 300 μL/well 37° C. 1.5 h) and washing (PBS+Tween-20 0.05% v/v (0.05% PBST), wells were incubated with each purified scFv antibody at concentration of 1 μg/mL in PBS at 37° C. 1 h. After washing (0.05% PBST), wells were incubated with secondary antibodies (goat anti-His IgG-HRP) in PBS, 37° C., 30 min. After washing, and incubation with TMB substrate, reactions were stopped with 2M HCl and reading was quantified at OD450.
(§2) Then a library of overlapping peptides were designed and constructed separately to produce 16 different peptides, covering full antigen sequence of total 48 aa. Peptide size was 10aa, with 7aa overlapping and ELISA screening of scFv against each peptide was performed in duplicate. Screening was performed using naked peptides in a standard plate or biotinylated peptides using avidin-plates.

naked peptide TDFTSPIPNM = biological target: T4, naked peptide TDFTSPIPNM; experiment: ELISA naked peptide; scFv 1 ug/mL; repII
Description: as §1, §2

naked peptide TSPIPNMADD = biological target: T5, naked peptide TSPIPNMADD; experiment: ELISA naked peptide; scFv 1 ug/mL; repII
Description: as §1, §2

naked peptide IPNMADDYGS = biological target: T6, naked peptide IPNMADDYGS; experiment: ELISA naked peptide; scFv 1 ug/mL; repII
Description: as §1, §2

naked peptide MADDYGSEST = biological target: T7, naked peptide MADDYGSEST; experiment: ELISA naked peptide; scFv 1 ug/mL; repII
Description: as §1, §2

naked peptide DYGSESTSSM = biological target: T8, naked peptide DYGSESTSSM; experiment: ELISA naked peptide; scFv 1 ug/mL; repII
Description: as §1, §2

naked peptide SESTSSMEDY = biological target: T9, naked peptide SESTSSMEDY; experiment: ELISA naked peptide; scFv 1 ug/mL; repII
Description: as §1, §2

naked peptide TSSMEDYVNF = biological target: T10, naked peptide TSSMEDYVNF; experiment: ELISA naked peptide; scFv 1 ug/mL; repII
Description: as §1, §2

naked peptide SSMEDYVNFN = biological target: T11, naked peptide SSMEDYVNFN; experiment: ELISA naked peptide; scFv 1 ug/mL; repII
Description: as §1, §2

naked peptide SMEDYVNFNF = biological target: T12, naked peptide SMEDYVNFNF; experiment: ELISA naked peptide; scFv 1 ug/mL; repII
Description: as §1, §2

naked peptide MEDYVNFNFT = biological target: T13, naked peptide MEDYVNFNFT; experiment: ELISA naked peptide; scFv 1 ug/mL; repII
Description: as §1, §2

naked peptide YVNFNFTDFY = biological target: T14, naked peptide YVNFNFTDFY; experiment: ELISA naked peptide; scFv 1 ug/mL; repII
Description: as §1, §2

naked peptide FNFTDFYCEK = biological target: T15, naked peptide FNFTDFYCEK; experiment: ELISA naked peptide; scFv 1 ug/mL; repII
Description: as §1, §2

naked peptide TDFYCEKNNV = biological target: T16, naked peptide TDFYCEKNNV; experiment: ELISA naked peptide; scFv 1 ug/mL; repII
Description: as §1, §2

naked peptide YCEKNNVRQF = biological target: T17, naked peptide YCEKNNVRQF; experiment: ELISA naked peptide; scFv 1 ug/mL; repII
Description: as §1, §2

naked peptide KNNVRQFAS = biological target: T18, naked peptide KNNVRQFAS; experiment: ELISA naked peptide; scFv 1 ug/mL; repII
Description: as §1, §2

[3] = biological target: T19, biotin-peptide TDFTSPIPNM; experiment: ELISA biotin-peptide; scFv 10 ug/mL; repII
Description: as §1
(§3) ELISA with biotin-conjugated peptides (5 μg/mL) was performed very similar to described above with minor modifications.

[4] = biological target: T20, biotin-peptide TSPIPNMADD; experiment: ELISA biotin-peptide; scFv 10 ug/mL; repII
Description: as §1, §3

[5] = biological target: T21, biotin-peptide IPNMADDYGS; experiment: ELISA biotin-peptide; scFv 10 ug/mL; repII
Description: as §1, §3

[6] = biological target: T22, biotin-peptide TSSMEDYVNF; experiment: ELISA biotin-peptide; scFv 10 ug/mL; repII
Description: as §1, §3

[7] = biological target: T23, biotin-peptide SSMEDYVNFN; experiment: ELISA biotin-peptide; scFv 10 ug/mL; repII
Description: as §1, §3

[8] = biological target: T24, biotin-peptide YCEKNNVRQF; experiment: ELISA biotin-peptide; scFv 10 ug/mL; repII
Description: as §1, §3

[9] = biological target: T25, Pep1-48, N-terminal domain 1 of CCR9, …; experiment: BLI, scFv on NTA biosensor, 1:1 global fit
Description: The affinity between the CCR9-N-terminal domain 1 of CCR9 and the different scFvs was determined by Bio-Layer Interferometry (BLI), a technique that allows quantitative and qualitative measurement of biomolecular interactions in real-time. Briefly, scFv were immobilized onto NTA Biosensor (Sartorius) and quantification was performed in an Octet RED384 (Sartorius). scFv were dissolved in PBS (150 mM NaCl, 38 mM Na2HPO4, 12 mM NaH2PO4, pH 7.2) and a buffer containing 0.03% Tween-20 in PBS, pH 7.2 was used for baseline steps.

Row | Binder | OD450 [1] [OD] | OD450 [2] [OD] | OD450 (naked peptide MTPTDFTSPI) [OD] | OD450 (naked peptide TDFTSPIPNM) [OD] | OD450 (naked peptide TSPIPNMADD) [OD] | OD450 (naked peptide IPNMADDYGS) [OD] | OD450 (naked peptide MADDYGSEST) [OD] | OD450 (naked peptide DYGSESTSSM) [OD] | OD450 (naked peptide SESTSSMEDY) [OD] | OD450 (naked peptide TSSMEDYVNF) [OD] | OD450 (naked peptide SSMEDYVNFN) [OD] | OD450 (naked peptide SMEDYVNFNF) [OD] | OD450 (naked peptide MEDYVNFNFT) [OD] | OD450 (naked peptide YVNFNFTDFY) [OD] | OD450 (naked peptide FNFTDFYCEK) [OD] | OD450 (naked peptide TDFYCEKNNV) [OD] | OD450 (naked peptide YCEKNNVRQF) [OD] | OD450 (naked peptide KNNVRQFAS) [OD] | OD450 [3] [OD] | OD450 [4] [OD] | other results
1 | B1 | 0.08 | 0.09 | 0.04 | 0.06 | 0.05 | 0.01 | 0.02 | 0.02 | 0.04 | 0.03 | 0.09 | 0.02 | 0.06 | 0.04 | 0.02 | 0.03 | 0.04 | 0.02 | 0.08 | 0.15 | OD450 [5]: 0.14 OD; OD450 [6]: 0.08 OD; OD450 [7]: 0.13 OD; OD450 [8]: 0.06 OD
2 | B2 | 0.09 | 1.97 | 0.03 | 0.05 | 0.02 | 0.02 | 0.02 | 0.02 | 0.02 | 0.03 | 0.09 | 0.03 | 0.04 | 0.01 | 0.03 | 0.03 | 0.07 | 0.04 | 0.12 | 0.05 | Kd [9]: 61.4 nM; koff [9]: 0.0152 s⁻¹; kon [9]: 248000 M⁻¹ s⁻¹; OD450 [5]: 0.09 OD; OD450 [6]: 0.06 OD; OD450 [7]: 0.1 OD; OD450 [8]: 0.1 OD
